Source: article PMC10156733, “N-Formimidoylation/-iminoacetylation modification in aminoglycosides requires FAD-dependent and ligand-protein NOS bridge dual chemistry” (Nature Communications, 2023)

How the values were obtained:
[1] = target: T1, Orf1 (Streptomyces luteocolor, UniProt A0A125SZC1); assay: LC-MS of denatured protein; X-ray crystal structure; format: binding; details: prosthetic group, copurified
T1 construct: full length, 491 residues; pET28a, His-tagged (Ni-NTA), E. coli BL21(DE3); tetramer with FAD in each chain; peptide AFAC281GLHLVPR
T1 sequence (A0A125SZC1 1-491): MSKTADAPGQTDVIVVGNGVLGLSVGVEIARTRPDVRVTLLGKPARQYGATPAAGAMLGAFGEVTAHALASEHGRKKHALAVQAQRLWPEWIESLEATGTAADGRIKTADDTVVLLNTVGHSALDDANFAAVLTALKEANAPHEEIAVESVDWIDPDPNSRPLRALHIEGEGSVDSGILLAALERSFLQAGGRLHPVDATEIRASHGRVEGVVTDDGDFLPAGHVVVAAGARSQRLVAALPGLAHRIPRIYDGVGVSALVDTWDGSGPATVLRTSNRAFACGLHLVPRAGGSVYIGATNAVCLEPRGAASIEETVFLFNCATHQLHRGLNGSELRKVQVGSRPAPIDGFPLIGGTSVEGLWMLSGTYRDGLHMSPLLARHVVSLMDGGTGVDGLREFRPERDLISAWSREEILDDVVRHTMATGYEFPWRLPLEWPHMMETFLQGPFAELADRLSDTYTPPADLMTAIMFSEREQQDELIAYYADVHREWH

[2] = target: T2, AAC(6’)-Ie-APH(6”)-Ia; aac(6’)-Ie-aph(2”)-Ia (Staphylococcus aureus, UniProt P0A0C1); assay: in vitro N-acetylation assay; format: biochemical; details: acetylation only to some extent
T2 construct: gene aacA-aphD; synthetic gene, recombinant

[3] = target: T1, Orf1; assay: isothermal titration calorimetry; format: binding
Excerpt: isothermal titration calorimetry on Orf1 | binding affinities of ST-F versus Orf1 wild-type or mutants were estimated

[4] = target: T3, Orf1 (Streptomyces luteocolor, UniProt A0A125SZC1, E312A); assay: isothermal titration calorimetry; format: binding
T3 construct: full length, 491 residues; pET28a, His-tagged (Ni-NTA), E. coli BL21(DE3); tetramer with FAD in each chain; peptide AFAC281GLHLVPR

[5] = target: T4, Orf1 (Streptomyces luteocolor, UniProt A0A125SZC1, R342A); assay: isothermal titration calorimetry; format: binding
T4 construct: full length, 491 residues; pET28a, His-tagged (Ni-NTA), E. coli BL21(DE3); tetramer with FAD in each chain; peptide AFAC281GLHLVPR
Excerpt: isothermal titration calorimetry on Orf1 | held the same ST-F binding affinity as the wild type

[6] = test system: NCCCC(N)CC(=O)NC1C(N=C2NC3C(=O)NCC(O)C3N2)OC(CO)C(OC(N)=O)C1O; assay: LC-MS of ST-F consumption; format: biochemical, Streptomyces luteocolor; details: glycine + ST-F, ST-F varied 25-500 μM, 100 mM sodium phosphate pH 8, 37 °C, crystal complex with glycine
[7] = substrate: NCCCC(N)CC(=O)NC1C(N=C2NC3C(=O)NCC(O)C3N2)OC(CO)C(OC(N)=O)C1O; assay: LC-MS of ST-F consumption; format: biochemical, Streptomyces luteocolor; details: glycine + ST-F, ST-F varied 25-500 μM, 100 mM sodium phosphate pH 8, 37 °C
[8] = substrate: NCC(=O)O; assay: purified protein; format: biochemical, Streptomyces luteocolor; details: single substrate glycine (oxidation phase), 100 mM sodium phosphate pH 8, crystal complex also shows covalent glycine imine-N-O-S adduct at C281

Cc1cc2nc3c(=O)[nH]c(=O)nc-3n(C[C@H](O)[C@H](O)[C@H](O)COP(=O)(O)OP(=O)(O)OC[C@H]3O[C@@H](n4cnc5c(N)ncnc54)[C@H](O)[C@@H]3O)c2cc1C [FAD]
LC-MS of denatured protein; X-ray crystal structure [1]: This yellow cofactor was determined to be flavin adenine dinucleotide (FAD)

NCC(=O)N[C@@H]1[C@H](O)[C@@H](OC(N)=O)[C@@H](CO)O[C@H]1N=C1N[C@@H]2[C@H](O)CNC(=O)[C@H]2N1 [compound 4, glycylthricin]
in vitro N-acetylation assay [2]: inactivated glycylthricin by N-acetylation to some extent in in vitro assay

NCCCC(N)CC(=O)NC1C(N=C2NC3C(=O)NCC(O)C3N2)OC(CO)C(OC(N)=O)C1O (centres unmarked) [compound 7, ST-F]
Kd [3]: 11.3 µM | Kd [4]: 55.2 µM | Kd [5]: 14.3 µM

Orf1 (Streptomyces luteocolor; F316A)
Km [6]: 190 µM | kcat [6]: 7.16 min⁻¹

B1: Orf1 (Streptomyces luteocolor) (protein)
chain: MSKTADAPGQTDVIVVGNGVLGLSVGVEIARTRPDVRVTLLGKPARQYGATPAAGAMLGAFGEVTAHALASEHGRKKHALAVQAQRLWPEWIESLEATGTAADGRIKTADDTVVLLNTVGHSALDDANFAAVLTALKEANAPHEEIAVESVDWIDPDPNSRPLRALHIEGEGSVDSGILLAALERSFLQAGGRLHPVDATEIRASHGRVEGVVTDDGDFLPAGHVVVAAGARSQRLVAALPGLAHRIPRIYDGVGVSALVDTWDGSGPATVLRTSNRAFACGLHLVPRAGGSVYIGATNAVCLEPRGAASIEETVFLFNCATHQLHRGLNGSELRKVQVGSRPAPIDGFPLIGGTSVEGLWMLSGTYRDGLHMSPLLARHVVSLMDGGTGVDGLREFRPERDLISAWSREEILDDVVRHTMATGYEFPWRLPLEWPHMMETFLQGPFAELADRLSDTYTPPADLMTAIMFSEREQQDELIAYYADVHREWH
notes: full length, 491 residues; pET28a, His-tagged (Ni-NTA), E. coli BL21(DE3); tetramer with FAD in each chain; peptide AFAC281GLHLVPR
Km [7]: 196 µM | kcat [7]: 3.08 min⁻¹ | Km [8]: 202 µM | kcat [8]: 0.737 min⁻¹
